Source: US20190085055A1
Where “and” joins values, the source holds several entries; their conditions need not be identical. Identical values can stand only once.

Assays:
D3H44 light chain F98A [1] = assay: LCCA (SPR), competitor L2 WT
D3H44 light chain Q38E [2] = assay: LCCA (SPR), competitor L2 F98A
D3H44 light chain Q38R = assay: LCCA (SPR), competitor L2 F98A
D3H44 light chain P44W = assay: LCCA (SPR), competitor L2 F98A
D3H44 light chain F98A [3] = assay: LCCA (SPR), competitor L1 Q38E
D3H44 light chain F98A [4] = assay: LCCA (SPR), competitor L1 P44W
D3H44 light chain F98A [5] = assay: LCCA (SPR), competitor L2 F98W
D3H44 light chain F98A [6] = assay: LCCA (SPR), competitor L1 Q38R
D3H44 light chain F98W [7] = assay: LCCA (SPR), competitor L1 F98A
[8] = molecular target: D3H44 light chain, wild type; assay: LCCA (SPR), competitor L1 F98A
[9] = molecular target: D3H44 light chain V133A_Q160K_T178R; assay: LCCA (SPR), competitor L1 Q124E_V133W_Q160E_T180E
[10] = molecular target: D3H44 light chain Q124E_V133W_Q160E_T180E; assay: LCCA (SPR), competitor L2 V133A_Q160K_T178R
[11] = molecular target: D3H44 light chain V133A_Q160K_T178R; assay: LCCA: H2 co-expressed with L1 and L2, SPR read-out of light chain tags; competing chain L1
[12] = molecular target: D3H44 light chain Q124E_V133W_Q160E_T180E; assay: LCCA: H2 co-expressed with L1 and L2, SPR read-out of light chain tags; competing chain L2
D3H44 light chain F116A = assay: LCCA (SPR), competitor L1 WT
D3H44 light chain F98L [13] = assay: LCCA (SPR), competitor L1 WT
D3H44 light chain F98A [14] = assay: LCCA (SPR), competitor L1 WT
[15] = molecular target: D3H44 light chain S176V_T178L; assay: LCCA (SPR), competitor L1 WT
D3H44 light chain F98W [16] = assay: LCCA (SPR), competitor L2 F98A
D3H44 light chain F98A [17] = assay: LCCA (SPR), competitor L1 F98W
D3H44 light chain F98W [18] = assay: LCCA (SPR), competitor L1 F98L
D3H44 light chain F98L [19] = assay: LCCA (SPR), competitor L2 F98W
[20] = molecular target: D3H44 light chain L89R_F98W; assay: LCCA (SPR), competitor L2 WT
[21] = molecular target: D3H44 light chain L89R_F98W; assay: LCCA: H1 co-expressed with L1 and L2, SPR read-out of light chain tags; competing chain L2
D3H44 light chain F98Y = assay: LCCA (SPR), competitor L1 L89R_F98W
[22] = molecular target: D3H44 light chain, wild type; assay: LCCA (SPR), competitor L1 L89R_F98W
[23] = molecular target: D3H44 light chain L89R_F98W; assay: LCCA (SPR), competitor L2 F98Y
[24] = molecular target: D3H44 light chain, wild type; assay: LCCA: H1 co-expressed with L1 and L2, SPR read-out of light chain tags; competing chain L1
[25] = molecular target: D3H44 light chain, wild type; assay: LCCA (SPR), competitor L2 S176V_T178L
D3H44 light chain Q38M [26] = assay: LCCA (SPR), competitor L2 Q38E; second of two ratios in the cell
D3H44 light chain Q38E [27] = assay: LCCA (SPR), competitor L1 Q38M; second of two ratios in the cell
D3H44 light chain Q38E [28] = assay: LCCA (SPR), competitor L1 Q38M; first of two ratios in the cell
D3H44 light chain Q38M [29] = assay: LCCA (SPR), competitor L2 Q38E
D3H44 light chain Q38E [30] = assay: LCCA (SPR), competitor L1 Q38M
D3H44 light chain Q38M [31] = assay: LCCA (SPR), competitor L2 Q38E; first of two ratios in the cell
D3H44 light chain L135W [32] = assay: LCCA (SPR), competitor L2 F116A_L135V
[33] = molecular target: D3H44 light chain, wild type; assay: LCCA (SPR), competitor L2 F116A
D3H44 light chain F116S = assay: LCCA (SPR), competitor L2 F118W_V133S
[34] = molecular target: D3H44 light chain F116A_L135A; assay: LCCA (SPR), competitor L1 L135W_N137A
[35] = molecular target: D3H44 light chain F118W_V133S; assay: LCCA (SPR), competitor L1 F116S
[36] = molecular target: D3H44 light chain L135W_N137A; assay: LCCA (SPR), competitor L2 F116A_L135A
D3H44 light chain L135W [37] = assay: LCCA (SPR), competitor L2 F116A_L135A
[38] = molecular target: D3H44 light chain F116A_L135A; assay: LCCA (SPR), competitor L1 L135W
[39] = molecular target: D3H44 light chain F116A_L135V; assay: LCCA (SPR), competitor L1 L135W

D3H44 heavy chain (Fab format) V37W
H1 L1 of H1 L1:H1 L2 (screen) (D3H44 light chain F98A [1]): 64.1
H2 L1 of H2 L2:H2 L1 (screen) (D3H44 light chain Q38E [2]): 8.05
H2 L1 of H2 L2:H2 L1 (verification) (D3H44 light chain Q38E [2]): 10.3
H2 L1 of H2 L2:H2 L1 (screen) (D3H44 light chain Q38R): 26.8
H2 L1 of H2 L2:H2 L1 (verification) (D3H44 light chain Q38R): 26.7
H2 L1 of H2 L2:H2 L1 (screen) (D3H44 light chain P44W): 9.41
H2 L2 of H2 L2:H2 L1 (screen) (D3H44 light chain F98A [3]): 65.9
H2 L2 of H2 L2:H2 L1 (verification) (D3H44 light chain F98A [3]): 70.5
H2 L2 of H2 L2:H2 L1 (screen) (D3H44 light chain F98A [4]): 83.1
H1 L1 of H1 L1:H1 L2 (screen) (D3H44 light chain F98A [5]): 62.4
H1 L1 of H1 L1:H1 L2 (verification) (D3H44 light chain F98A [5]): 61.5
H2 L2 of H2 L2:H2 L1 (screen) (D3H44 light chain F98A [6]): 48.9
H2 L2 of H2 L2:H2 L1 (verification) (D3H44 light chain F98A [6]): 47.8
H1 L2 of H1 L1:H1 L2 (screen) (D3H44 light chain F98W [7]): 23.5
H1 L2 of H1 L1:H1 L2 (verification) (D3H44 light chain F98W [7]): 23.4
H1 L2 of H1 L1:H1 L2 (screen) [8]: 28.8

D3H44 heavy chain (Fab format) K145T_Q179D_S188F
H2 L2 of H2 L2:H2 L1 (screen) [9]: 87.3
H2 L2 of H2 L2:H2 L1 (verification) [9]: 83.2
H2 L1 of H2 L2:H2 L1 (screen) [10]: 1.5
H2 L1 of H2 L2:H2 L1 (verification) [10]: 11.5
H2 Readout (H2-L2) [11]: 87
H2 Readout (H2-L1) [12]: 14

D3H44 heavy chain (Fab format), wild type
H1 L2 of H1 L1:H1 L2 (screen) (D3H44 light chain F116A): 26.3
H1 L2 of H1 L1:H1 L2 (screen) (D3H44 light chain F98L [13]): 13.3
H1 L2 of H1 L1:H1 L2 (screen) (D3H44 light chain F98A [14]): 7.5
H2 L2 of H2 L2:H2 L1 (screen) [15]: 99.4
H1 L1 of H1 L1:H1 L2 (screen) (D3H44 light chain F98W [16]): 67.1
H1 L1 of H1 L1:H1 L2 (verification) (D3H44 light chain F98W [16]): 67.1
H1 L2 of H1 L1:H1 L2 (screen) (D3H44 light chain F98A [17]): 28.7
H1 L2 of H1 L1:H1 L2 (verification) (D3H44 light chain F98A [17]): 28.7
H2 L2 of H2 L2:H2 L1 (screen) (D3H44 light chain F98W [18]): 74.2
H2 L2 of H2 L2:H2 L1 (verification) (D3H44 light chain F98W [18]): 50.8
H2 L1 of H2 L2:H2 L1 (screen) (D3H44 light chain F98L [19]): 27.8
H2 L1 of H2 L2:H2 L1 (verification) (D3H44 light chain F98L [19]): 23.6

D3H44 heavy chain (Fab format) V37E_F100D
H1 L1 of H1 L1:H1 L2 (screen) [20]: 98.7
H1 L1 of H1 L1:H1 L2 (verification) [20]: 119
H1 Readout (H1-L1) [21]: 99
H1 L2 of H1 L1:H1 L2 (screen) (D3H44 light chain F98Y): 24.4
H1 L2 of H1 L1:H1 L2 (verification) (D3H44 light chain F98Y): 18.1
H1 L2 of H1 L1:H1 L2 (screen) [22]: 4.2
H1 L2 of H1 L1:H1 L2 (verification) [22]: 4.5
H1 L1 of H1 L1:H1 L2 (screen) [23]: 67.8
H1 L1 of H1 L1:H1 L2 (verification) [23]: 76.3
H1 Readout (H1-L2) [24]: 10

D3H44 heavy chain (Fab format) S188I
H1 L2 of H1 L1:H1 L2 (screen) [15]: 41.9
H1 L1 of H1 L1:H1 L2 (screen) [25]: 61.9

D3H44 heavy chain (Fab format) Q39M
H1 L1 of H1 L1:H1 L2 (verification) (D3H44 light chain Q38M [26]): 58.8
H1 L2 of H1 L1:H1 L2 (verification) (D3H44 light chain Q38E [27]): 40.6
H1 L2 of H1 L1:H1 L2 (verification) (D3H44 light chain Q38E [28]): 31.3
H1 L1 of H1 L1:H1 L2 (screen) (D3H44 light chain Q38M [29]): 69.6
H1 L2 of H1 L1:H1 L2 (screen) (D3H44 light chain Q38E [30]): 33.3
H1 L1 of H1 L1:H1 L2 (verification) (D3H44 light chain Q38M [31]): 60.2

D3H44 heavy chain (Fab format) A139W
H1 L2 of H1 L1:H1 L2 (screen) (D3H44 light chain F116A): 30.5
H2 L1 of H2 L2:H2 L1 (screen) (D3H44 light chain L135W [32]): 34.6
H2 L1 of H2 L2:H2 L1 (verification) (D3H44 light chain L135W [32]): 19.1
H1 L1 of H1 L1:H1 L2 (screen) [33]: 58.7
H2 L1 of H2 L2:H2 L1 (screen) (D3H44 light chain F116S): 4.6
H2 L1 of H2 L2:H2 L1 (verification) (D3H44 light chain F116S): 40.9 and 38.1
H2 L2 of H2 L2:H2 L1 (screen) [34]: 73.6
H2 L2 of H2 L2:H2 L1 (screen) [35]: 76.5
H2 L2 of H2 L2:H2 L1 (verification) [35]: 38.1 and 40.9
H2 L1 of H2 L2:H2 L1 (screen) [36]: 19.8
H2 L1 of H2 L2:H2 L1 (screen) (D3H44 light chain L135W [37]): 17.4
H2 L1 of H2 L2:H2 L1 (verification) (D3H44 light chain L135W [37]): 10.2
H2 L2 of H2 L2:H2 L1 (screen) [38]: 77.4
H2 L2 of H2 L2:H2 L1 (verification) [38]: 78.7
H2 L2 of H2 L2:H2 L1 (screen) [39]: 62.7
H2 L2 of H2 L2:H2 L1 (verification) [39]: 76.7
